Test results published in patent publication US5955420.
One block for each substance: values may come before it.

How the values were obtained:
[1] = biological target: Rse.gD (human Rse receptor with a C-terminal HSV-1 glycoprotein D flag) on dp12.CHO cells (human) (UniProt Q06418)
[2] = biological target: Rse-IgG fusion protein (extracellular domain of human Rse followed by the Fc portion of human IgG) (human) (UniProt Q06418); test: 125I-Rse-IgG binding assay
[3] = biological target: Rse-IgG fusion protein (extracellular domain of human Rse followed by the Fc portion of human IgG) (human) (UniProt Q06418); test: 125I-Rse-IgG binding to CMK11-5 membranes
[4] = biological target: Rse.gD (human Rse receptor with a C-terminal HSV-1 glycoprotein D flag) on dp12.CHO cells (human) (UniProt Q06418); remark: listed apart in the source
[5] = biological target: Rse ligand (Rse-L) in fetal bovine serum, unpurified or Q-Sepharose enriched (bovine) (UniProt P07224); test: Scatchard analysis, 125I-Rse-IgG displaced by unlabeled Rse-IgG on CMK11-5 membranes, 1% FBS
[6] = biological target: Rse ligand (Rse-L) in fetal bovine serum, unpurified or Q-Sepharose enriched (bovine) (UniProt P07224); test: Scatchard analysis, 125I-Rse-IgG displaced by unlabeled Rse-IgG on CMK11-5 membranes, 10% FBS
[7] = biological target: recombinant human gas6 (human); test: 125I-Rse-IgG and purified gas6, displaced by unlabeled Rse-IgG, barium chloride coprecipitation

KIRA assay, specific activity (KIRA units/mg P) [1]: 3160
Substance: recombinant human gas6 lacking the gamma-carboxyl modification of glutamic acid (form 2) (ligand)

fold lower affinity than purified bovine protein S [2]: 200 fold
EC50 [3]: > 250 nM
Substance: human protein S (ligand)

KIRA assay, EC50 for activation [4]: 0.4 nM
Substance: gD.gas6.279-C.IgG (from UniProt P01857-1) (Fc fusion)

EC50 [3]: 1.2 nM
Substance: purified bovine protein S (Rse-L purified from fetal bovine serum) (from UniProt P07224) (ligand)

KIRA assay, specific activity (KIRA units/mg P) [1]: 1170
Substance: recombinant human gas6 (ligand)

Kd [5]: 0.82 nM
Kd [6]: 2.2 nM
Kd [7]: 0.46 nM
Substance: Rse-IgG fusion protein (extracellular domain of human Rse followed by the Fc portion of human IgG) (from UniProt Q06418) (Fc fusion)
